{"source": "the DeepSol protein solubility set"}
{"assay": "soluble on expression in E. coli; label from the status in PepcDB or PDB records"}
{"sequence": "MGSDKIHHHHHHMARRYVVVGGGPAGVVCAETLRRQDAEGSITLVCAEPGPPYSRMAIPYAMSGKIDESGTWLRKDWGHYEALGIALLHDRVTGVDSGARQVRLESGAPLSYDALLIATGSSPARPRVPGLDLPGVHSCWTLEDLRRIDPLLKPGRRVLLLGAGFVSCIILQSLVQRGAKVTVSCGSSGRMVRSMMDETAGGMIMRWCRAKGVEVLTAGRPTAIEQRDSGLLVTLDSGKSAEADLVIVGTGVKTNTAFLEGSGIAIEDGIIVDQYLGTNVPGIWAAGDVAQGFNCCTGLTEVHAIQPTAVEHGRVAAMNMSGHPTPFGGSLSMNTLETLGLISCSFGQWMGAEGGKQVRMVDEEHFRYLRLEFQGDRLVGANTVGMTNEIGIIRGLIQTKLRLGEWLERLTQDPSRLAEAYVACAQGV", "soluble on expression in E. coli": "not soluble"}
{"sequence": "MGSDKIHHHHHHMSEIWRQCKGERHIRPLQGRLVRLVESQEQVATLQLVDTLEEQALLEELLESSKPPVPADAEPLHYLLKTPFRYPPLRWGSRFGRRHEPSLFYAALKLETAMAESAYYRCVLWSGMVVPPPSGRILSEHASFEAGWKVERGIRLQAPPFSDHEAALTDIADYRAPQELGSAMRSAGVQAFEYRSARCPERGCNVALFTPAAFTEKRPRNLTPWLCETTAGYVAFKPAHVPGSPKIFSWELFLVDGKLPHPA", "soluble on expression in E. coli": "not soluble"}
{"sequence": "MSLTVPTILVIDDDVQVCETIASLLARLRYACETAHSLEQGLAILETAPVDVVFLDVRLPDGNGIDALPRIRQAPSHPEVIILTGEGDPDDAELAIQGGVWDYLVKPTPIKQTTLTLARALQYRAEKLSKGGGGTVALDLDGVVGISPSMRQCFDLVANAATTEANVLVTGETGTGKELLARTIHRNSPRRNGPFVVVDCAALTESLVESTLFGHKRGAFTGAQQDRDGLVKLADGGTLFLDEVGEMPLAIQRAFLRILQERSFRPVGGTQEIRSDFRLISATNRDLDAMVERGEFRKDLLFRLNTVHVELPPLRTRPEDLKPLAIFHMNRLAEQYGVPAKGFATDFFQQLAQYDWPGNVREFFNVLERSFVISGLEGVLYAMHLPQDVRIKITRASLARSEGHHHHHH", "soluble on expression in E. coli": "soluble"}
{"sequence": "EVKVEESGGGLVQPGGSMKLSCVASGFTFSNYWMEWVRQSPEKGLEWVAEIRLKSNNYATHYAESVKGRFTISRDDSKSSVYLQMNNLRAEDTGIYYCTRGGAVGAMDYWGQGTSVTVSSATTTAPSVYPLVPGCSDTSGSSVTLGCLVKGYFPEPVTVKWNYGALSSGVRTVSSVLQSGFYSLSSLVTVPSSTWPSQTVICNVAHPASKVDLIKEPSGP", "soluble on expression in E. coli": "soluble"}
{"sequence": "VKFLTVNDDILSMPQARNFCASAGGYLADDLGDDKNNFYSSIAANTQFWIGLFKNSDGQFYWDRGQGINPDLLNQPITYWANGEPSNDPTRQCVYFDGRSGDKSKVWTTDTCATPRPFICQKHRYDSDHKPNTIGDA", "soluble on expression in E. coli": "soluble"}
{"sequence": "MGSDKIHHHHHHEDTTSSPEEDPLAPQNDDADLLLKPLIAKDPRTRGQRGPFAAMTGSYGRGGYGGSGGGAFGGFNGGYGQGGYGGGGDFGGGMGGGGYGGGGYGGGGDGGGGYGGYGGGGYGGMGGGPGGYGMGGYGGGGGGGGDFGGYGGGGMGGGGYGGGGDGGYGGGGFGGGGMGGYGGGMGGGGYGGGGMGGGGYGGGGDGGYGPSGGYGGGYGPGGGYGMGGGGGGGGCPNGECRGKK", "soluble on expression in E. coli": "not soluble"}
{"sequence": "MAHHHHHHMNLRSLVPSDKQLTEEQQSHIQDLQDEIDEIWSRRGDYKIDDKAWEHMPLFMETITEEDMQKNADCAALASIAYDEVPPEDIAESRKQHGNRAIQLALNPEQVNKENLARAAAHCYTEGLNAKCKDPILNSQLYANRSLAQYIIQNYGHGLEDAQRAIILNPDYSKAYYRAARCAERVKKYDLAIDLLSKGRCTNPPPEGIALEEFEELERVCREGMKKFQKKEKEDSIRTRVRAAETSSLMRALTSYGIRLSPTPEVSSEQMGVYGQHQPYFDAVGLLHVPILFMYDEYQQTDFMQDVTCDVSTAELLDEIMPFPWDDRGRYRHMNEVVVFFKIDDGVKMAEYYEVDLSWPLMEVFRSESYKMPMLLPVLHVVCRSSELLQHWKPQKPR", "soluble on expression in E. coli": "not soluble"}
{"sequence": "MIKVGICDTTFARYDMGGAAIDELKKHTAGIKIIRRTVPGIKDLPVACKKLIEEEGCEMVMALGMPGPEEKDKVCAHEASTGLIQAQLMTNTHILEVFVHEDEEDDPEELKVLADNRAREHAQNLIMMLFKPDRLTREAGMGLREGKPDAGPL", "soluble on expression in E. coli": "not soluble"}
{"sequence": "KVGLIIISHGRIATETVNVVKELLGVKFPVAIDMPLDEKPINIYNKAVELSKIIDQGKGILFLVDIGSLTNIGQIVNKRTNISTKTIDRVDLLMALEATRKVSMGEEELDEIFFSLLKDRMGYNYELEKHIDKS", "soluble on expression in E. coli": "not soluble"}
{"sequence": "MGSDKIHHHHHHMSNTVRAISPDITLFNKTLTFQEISQNTREAVIYIHGGAWNDPENTPNDFNQLANTIKSMDTESTVCQYSIEYRLSPEITNPRNLYDAVSNITRLVKEKGLTNINMVGHSVGATFIWQILAALKDPQEKMSEAQLQMLGLLQIVKRVFLLDGIYSLKELLIEYPEYDCFTRLAFPDGIQMYEEEPSRVMPYVKKALSRFSIDMHLVHSYSDELLTLRQTNCLISCLQDYQLSFKLYLDDLGLHNDVYKNGKVAKYIFDNIC", "soluble on expression in E. coli": "soluble"}
{"sequence": "MSLRLKWEGTFADYLEIIKENPMVAQSAHSRVFNMIKDSGIEEIDGRKKYSFFDRELFGLEESLERLVEEYFHPAAKRLDVRKRILLLMGPVSGGKSTLVTMLKKGLEAYTLTDNGAVYAIKGCPMHEDPLHLIPHHLRDDFYREYGIRIEGSLSPLNVMRLEEEYGGRIEDVKVERIFFSEDKRTGIGTFSPSDPKSQDIADLTGSIDFSTIAEYGSESDPRAYRFDGELNKANRGMMEFQEMLKCDEKFLWHLLSLTQEGNFKAGRFALISADELIVAHTNETEYRSFISNKKNEALHSRIIVMPVPYNLKVSEEERIYEKMIAESDVADVHIAPHTLKVAAMFSILTRLKEPKRSDIDLVKKMRLYDGESVEGYNSVDVEDMKKEYNDEGMSGIDPRYVINRISSTIIRKNMESINSLDVLRSLKEGLDQHPSISSEDRERYLNFISAARKEYDDIAKKEVQKAFVYSYEESAKTLMDNYLDNVEAYCNKNKLRDPLTGEEMNPDEKLMRSIEEQIGISENAKKAFREEILIRISAYARKGKRFDYNSHERLREAIQKKLFADLKDVVKITTSTKTPDEQQLKKVNEVVARLIDEHGYNSTSANELLKYVGSLLNREGHHHHHH", "soluble on expression in E. coli": "soluble"}
{"sequence": "MSLAGILGFPVAPFNTQGTLEEEALFQNIEFLLNEGLEAIFIACGSGEFQSLSQKEYEQMVEVAVSAAGGKVPVYTGVGGNLSTALDWAQLSEKKGADGYLILPPYLVHGEQEGLYQYAKTIIESTDLNAILYQRDNAVLSVEQIKRLTECEQLVGVKDGVGNMDLNINLVYTIGDRLGWLNGMPMAEVTMPAYLPIGFHSYSSAISNYIPHISRMFYDALKNGNDELVKELYRHVILPINDIRKQRKGYAVSLIKAGMEIMGLNVRNTARPPVGPVEKDHYQQLEAILKQPADRFPKKEGHHHHHH", "soluble on expression in E. coli": "not soluble"}
{"sequence": "MGSDKIHHHHHHMKTARLIYNPTSGREQIRKSLAYILERLELAGYETSTHATTGEGSATEAARLAGERRHDLVIAAGGDGTIYEVVNGLAGLEKRPTLGLIPAGTTNDFARALNIPRDIEKACDILIEGHTKPVDVGKAGDHYFINIAAGGTLTELTYEVPSKLKTVVGQLAYYIKGLEKLPQISPTDVRIEYDGKLFEGEIMMFLVSNTNSVGGFERLAPNASLRDGMFDFIIVKKTSFPEFLHLAGLALRGEHIKHPKVLYVQANRIKVQAEKSMQLNFDGEYGGLLPAEFVNLYQHFQMLCPKD", "soluble on expression in E. coli": "not soluble"}
{"sequence": "MCLVQATGGSSTHKLVSAGAEKMIITRPDFVDPPGSKDISITRTARAPKEDKLVIHFCTCRCN", "soluble on expression in E. coli": "not soluble"}
{"sequence": "WYGSPQFDGKYVHWDHPLLPHWDPKVASSYSTGRHQPPEDIGANFYPALGPYSSRDPAVLEEHMRQLRMAAVGVLAVSWYPRSMKDDNGEEIDSLLPLILDAADKYQLKVLYNLYVFKNVICINKYV", "soluble on expression in E. coli": "soluble"}
{"sequence": "MANFESSVKVIPYSQERVYAKLSDLSNLESVKGRLPEDKIQDLSFDSDTLSFSVSPIGQLTLQIVEREPCKCIKLATTNSPLPFNMWIQLVSTAEEECKLKVTISMDINPFMKAMVQKPLQDGLEKMVEMLSMINYLEHHHHHH", "soluble on expression in E. coli": "soluble"}
{"sequence": "MQQASHPTVILGGGFAGLFTALHLSQQNYSYPIILIEQRDRFSFKPLLYELLSGELHSQQVYPRYQELLAGSKVKFVQDTVQSIDIHQQRVDTVSGQAFHYSNLILALGSKTTYFATPGAAEYAMPFTSGEQAIALRQHLRHKLYQAIQTSDSERRRLLLTVAIIGAGPSGIELACTLADLLPIWYDELGGDGSEIHVVLVNRSREILKGDVNSHLRCTVERAMKNRLIPVDFLFDAAVTKITPDGVECRRHGQIQMLQAGTIAWTAGTAPHPLLMELPVSQNRGRLLVKPTLQLSNFPEIFAAGDCATDSDHPQPPTAQVAYQQGIAIAQNLQRISQNKPTIPVQLEHHHHHH", "soluble on expression in E. coli": "not soluble"}
{"sequence": "MGSDKIHHHHHHMKQPNYYQDVKQFHQTFHHPGADQPTAIPLDRGVKRATWTAEEAVVEFLHQSSQNETEFLAAIETFKAGLDQAVKKSLKETYPVTEVERLVGQGDALTDALYFIMGSFVEAGLEPGPLFEIVQQANMAKLGPDGQPIFRESDQKVMKPDGWLPPEPQLEAEVVRQMKEKA", "soluble on expression in E. coli": "not soluble"}
{"sequence": "MKNRYAKVSNMAKNASSPSRRFMKLAGMTASIATKTVSNSIRNLTADDEQKLASKTKLFQDIGIQIADTLGEMKGAVMKVGQIASQYKDIFPPEVAKAIAKLQRQAPAVPFSAIQQQVEKELGKPLLQAFQSFDQQPFAAASIGQVHRAVLPDGQEVVVKVQYPGVDEACESDLKQVRLALRLMGVIKIDKKLQDQLFTEIQDSLSDELNYEIEAQNLEVFKTFHQQLDNKIIIPTVYKNYSSRRILTLSLERGDSIETASTWPLETRNQIGRRLIRALGQEIFYLKRFHCDPHPGNFAFREDGTVIIYDFGGVKTLSSDIVSHFKHLVQAARQQDITAIENHLDALHSLSDKGLFPEELYLQWLEVLLRPLTTHYDFAENSAHHDGVTLVKKSLKYWDVFKPSPDTLMVNRTISGHYWNLIHLKVHDDLSDLFEELVPTTIN", "soluble on expression in E. coli": "not soluble"}
{"sequence": "MAETHSLGTKILIKIIRLYQIMISPFIGARCRFVPTCSCYGIEALKTHGLLKGGWLTLKRVLKCHPLNAGGFDPVPPKTNNNDEKK", "soluble on expression in E. coli": "not soluble"}
{"sequence": "MNIAIIGGGIAGLATAHLLCDDHRVTLFEANDYLGGHTNTVDVSLDGTTLAVDTGFIVFNERTYPNFIRLLERLNVASRPSVMSFSVTSERNGLEYCATNLDTLFAQRRNFLNRPFWRMLREIVRFNREARELYDSHEMTLTLGDYLKNRGYSVTFVENFLVPMGAAIWSADPKRFAMFPAAAFVRFFTNHGILNVVDQPRWRVVAGGSREYVAPLARPFRDRVRLSTPVDRVRRFPDRVAVTTRGGETEYFDQVVLACHSDQALAMLTDPSDAERELLSAIPYQENDTVLHTDSRLLPGLPKARASWNCRIPRHERDGVFVTYWMNRLQSLATSTDFCVTLNGTEAIAPERIIRRITYHHPVYSPAAFEAQKRRDEISGTNRTWYCGAYWGYGFHEDGLNSALAVCRRFGRGLLEHHHHHH", "soluble on expression in E. coli": "not soluble"}
{"sequence": "MSLAATALLEAGLARVLFYPTLLYTLFRGKVPGRAHRDWYHRIDPTVLLGALPLRSLTRQLVQDENVRGVITMNEEYETRFLCNSSQEWKRLGVEQLRLSTVDMTGIPTLDNLQKGVQFALKYQSLGQCVYVHCKAGRSRSATMVAAYLIQVHKWSPEEAVRAIAKIRSYIHIRPGQLDVLKEFHKQITARATKDGTFVISKTEGHHHHHH", "soluble on expression in E. coli": "soluble"}
{"sequence": "MAFLGYGAAAALGGALVYANLPTYLTIGAVAPTFAHLAAAKLVPIRGGPKEKEVVERNEQFTADSLFKKGPIMVMAVRRPGCMLCRREAAELHTLLPLLKEKGIELAAVVHETRGANEFKSWFSGGDVYLDTDRTFYGPNERWLPVWMGFLRFGTYSNVYKAKKAKVEGNMEGEGRLLGGVYLIANNDIVFTHLEKEWGDAADIKEVRAAVEKFSEKSK", "soluble on expression in E. coli": "not soluble"}
